Source: PMC5997990

Key:
[1] = target: T7 helicase-primase gp4A' (wild-type helicase) (bacteriophage T7) (UniProt P03692)
[2] = target: T7 helicase-primase gp4A' (wild-type helicase) (bacteriophage T7) (UniProt P03692); assay: single-molecule optical trapping (DNA unzipping force); helicase and DNAP in solution with a tethered forked dsDNA, 2 mM dTTP; after helicase unwound ~1000 bp under 9 pN the remaining DNA was unzipped mechanically at 2000 bp/s; a force-rise above the naked DNA baseline shows protein bound across the fork junction; 50 mM Tris-HCl pH 7.5, 40 mM NaCl, 10% glycerol; 25 ± 1 °C

- replication re-initiation efficiency after collision with a stalled E. coli TEC, normalised against the TEC formation efficiency [1]: 15%
- traces that passed a stalled co-directional E. coli TEC and went over to unwinding with leading-strand synthesis, 0.5 mM dNTP each, 5 pN [1]: 12%
- peak of the force-rise [2]: 26 pN
- percent of traces with a force-rise above the naked DNA baseline [2]: 75%
Substance: T7 DNA polymerase (gp5/trx complex), exo- gp5 (D5A, D7A) with E. coli thioredoxin (from UniProt P00581 1-704; P0AA25 1-109)
